Data: PMC2779547

Molecular target: KcsA R64C-SL (potassium ion channel KcsA, R64C mutant, spin-labelled with MTSL) (UniProt P0A334)
Assay: PELDOR

## KcsA R64C-SL (potassium ion channel KcsA, R64C mutant, spin-labelled with MTSL) (from UniProt P0A334 1-160) (natural protein)
  stoichiometry N: 4
